Source: US20250206820A1 (NGM BIOPHARMACEUTICALS, published 2025)
Like-named read-outs stand apart in the source and are kept apart here.

Key:
[1] = molecular target: T1, human ILT3 (as used in the affinity measurements) (human, UniProt Q8NHJ6 22-259, limits assumed); test: column 'ILT3 Affinity (nM)'; method and format not stated
T1 construct: also called immunoglobulin-like transcript 3

[2] = molecular target: T1, human ILT3 (as used in the affinity …); test: comparison of the affinity of Hz45G10 for human ILT3 with that of the CD3 scFv for CD3
[3] = molecular target: T2, ILT3 on target cells (MOLM13, OCI-AML-2, NALM-1, THP-1, MM1S, H929, U226B1 and other lines) (human, UniProt Q8NHJ6 22-448); test: cell-based or functional assay
[4] = molecular target: T2, ILT3 on target cells (MOLM13, …); test: cell-based or functional assay; remark: listed apart in the source
[5] = molecular target: T2, ILT3 on target cells (MOLM13, …); test: cell-based or functional assay; remark: listed apart in the source
[6] = molecular target: T2, ILT3 on target cells (MOLM13, …); test: cell-based or functional assay; remark: listed apart in the source
[7] = molecular target: T2, ILT3 on target cells (MOLM13, …); test: cell-based or functional assay; remark: listed apart in the source
[8] = molecular target: T2, ILT3 on target cells (MOLM13, …); test: cell-based or functional assay; remark: listed apart in the source
[9] = molecular target: T3, CD3 (as used in the affinity measurements) (human, UniProt P07766 23-126); test: SPR
T3 construct: the description gives human CD3 as UniProtKB P07766; also called human CD3
T3 sequence (P07766 23-126): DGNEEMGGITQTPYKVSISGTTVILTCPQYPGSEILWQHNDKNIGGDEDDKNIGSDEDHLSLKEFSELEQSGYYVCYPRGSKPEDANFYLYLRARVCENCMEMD

B1: 53F10 anti-ILT3 antibody (antibody, V domains shown)
VH: EVQVVESGGGLVKPGGSLKLSCAASGFTFSDYGMHWVRQAPEKGLEWVAYISTGIITVYYADTVKGRFTMSRDNAKNTLFLQMTSLRSEDTAIYYCARADGRGAMDYWGQGTSVIVSS
VL: DIQMTQTTSSLSASLGDRVTISCRASQDISNFLNWYQQKPDGTVTLLIYYTSRLHSGVPSRFSGSGSGTDYSLTISNLEQEDFATYFCQQGNTLPWTFGGGTKLEIK
Kd [1]: 0.25 nM

B2: 16C5 anti-ILT3 antibody (antibody, V domains shown)
VH: EVQLQQSGPELVKPGASVKISCKASGYTFTDYNMDWVKQSHGKSLEWIGYIYPSNGGTGYNQKFKSKATLTVDKSSNTAYMELHSLTSEDSAVYYCARVPYYDYLYYYAMDYWGQGTSVTVSS
VL: QIVLSQSPAILSASPGEKVTMACRASSSVSFMHWYQQKPGSSPQPWIYATSNLASGVPARFSGSGSGTSYSLTISRVEAEDAATYYCQQWSTNPYMYTFGGGTKLEIK
Kd [1]: 0.7 nM

B3: 12A12 anti-ILT3 antibody (antibody, V domains shown)
VH: EVQLQQSGPELVKPGASVKISCKASGYTFTDYNMDWVKQSHGKSLEWIGYIYPNNGGTGYNQKFNSKATLTVDKSSSTAYMELHSLTSEDSAVYYCASSPYYDYVGSYAMDYWGQGTSVTVSS
VL: QIVLTQSPAIMSASLGERVTMTCTASSSVSSSYLHWYQQKPGSSPKLWIYSTSNLASGVPARFSGSGSGTSYSLTISSMEAEDAATYYCHQYHRSPRTFGGGTKLEIK
Kd [1]: 8.5 nM

B4: 3A3 anti-ILT3 antibody (antibody, V domains shown)
VH: QVQLKESGPGLVAPSQSLSITCTVSGFSLTSYGVHWVRQPPGKGLEWLGVIWPGGTINYNSALMSRLSISKDNSKSQVFLKLNSLQTDDTAMYYCASDKYDGGWFAYWGQGTLVTVSA
VL: DIVMTQSQKFMSTSVGDRVSITCKASQNVRTAVAWYQQKPGQSPEALIYLASNRHTGVPDRFTGSGSGTDFSLSISNVQSEDLADYFCLQHLNYPLTFGSGTKLEIK
Kd [1]: 2 nM

B5: Hz45G10 anti-ILT3 antibody (antibody, V domains shown)
VH: EVQLVESGGGLVQPGGSLRLSCAASGFTFSDYGMHWVRQAPGKGLEWVAYIFSGSSTIYYADTVKGRFTISRDNAKNSLYLQMNSLRAEDTAVYYCARADGRGAMDYWGQGTLVTVSS
VL: DIQMTQSPSSLSASVGDRVTITCRASQDISKFLNWYQQKPGKAPKLLIYYTSRLHSGVPSRFSGSGSGTDFTFTISSLQPEDIATYFCQQGNTLPWTFGGGTKLEIK
Kd [1]: 0.13 nM | fold higher affinity than the CD3 scFv (for CD3) [2]: 38 fold

B6: ABX1446, ILT3xCD3 bispecific antibody, format F0 (bispecific antibody, human IgG1, kappa, L234A L235A)
chain: EVQLLESGGGLVQPGGSLKLSCAASGFTFNTYAMNWVRQAPGKCLEWVARIRSKYNNYATYYADSVKDRFTISRDDSKNTAYLQMNNLKTEDTAVYYCVRHGNFGNSYVSWFAYWGQGTLVTVSSGGGGSGGGGSGGGGSELVVTQEPSLTVSPGGTVTLTCRSSTGAVTTSNYANWVQQKPGQAPRGLIGGTNKRAPGTPARFSGSLLGGKAALTLSGVQPEDEAEYYCALWYSNLWVFGCGTKLTVLGGGGSDKTHTCPPCPAPEAAGGPSVFLFPPKPKDTLMISRTPEVTCVVVDVSHEDPEVKFNWYVDGVEVHNAKTKPREEQYNSTYRVVSVLTVLHQDWLNGKEYKCKVSNKALPAPIEKTISKAKGQPREPQVYTLPPSREEMTKNQVSLSCAVKGFYPSDIAVEWESNGQPENNYKTTPPVLDSDGSFFLVSKLTVDKSRWQQGNVFSCSVMHEALHNHYTQKSLSLSPGK
heavy: EVQLVESGGGLVQPGGSLRLSCAASGFTFSDYGMHWVRQAPGKGLEWVAYIFSGSSTIYYADTVKGRFTISRDNAKNSLYLQMNSLRAEDTAVYYCARADGRGAMDYWGQGTLVTVSSASTKGPSVFPLAPSSKSTSGGTAALGCLVKDYFPEPVTVSWNSGALTSGVHTFPAVLQSSGLYSLSSVVTVPSSSLGTQTYICNVNHKPSNTKVDKKVEPKSCDKTHTCPPCPAPEAAGGPSVFLFPPKPKDTLMISRTPEVTCVVVDVSHEDPEVKFNWYVDGVEVHNAKTKPREEQYNSTYRVVSVLTVLHQDWLNGKEYKCKVSNKALPAPIEKTISKAKGQPREPQVYTLPPSREEMTKNQVSLWCLVKGFYPSDIAVEWESNGQPENNYKTTPPVLDSDGSFFLYSKLTVDKSRWQQGNVFSCSVMHEALHNHYTQKSLSLSPGK
light: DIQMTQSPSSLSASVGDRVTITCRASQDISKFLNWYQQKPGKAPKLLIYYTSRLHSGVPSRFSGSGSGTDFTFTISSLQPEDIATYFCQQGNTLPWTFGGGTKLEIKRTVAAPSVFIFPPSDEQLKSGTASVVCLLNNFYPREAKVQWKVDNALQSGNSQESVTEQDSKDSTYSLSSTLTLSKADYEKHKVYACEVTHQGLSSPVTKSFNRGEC
TDCC, EC50 (pM), MOLM13 cells, expanded T cells [3]: 0.9 pM | PBMC Cytotoxicity, EC50 (pM), MOLM13 cells, naive T cells from PBMCs [4]: 46.8 pM | TDCC, EC50 (pM), MOLM13 cells, expanded T cells [4]: 10.9 pM | TDCC vs. NALM-1 Cells, EC50 (pM), expanded T cells [5]: 5.7 pM | TDCC vs. OCI-AML-2 Cells, EC50 (pM), expanded T cells [5]: 13.5 pM | TDCC vs. NKM-1 Cells, EC50 (pM), naive T cells from PBMCs [6]: 20.4 pM | TDCC vs. OCI-AML-2 Cells, EC50 (pM), naive T cells from PBMCs [6]: 2.5 pM | TDCC, EC50 (pM), MOLM13 cells [7]: 11 pM | TDCC, EC50 (pM), H929 cells [8]: 18.6 pM | TDCC, EC50 (pM), MM1S cells [8]: 18.6 pM | TDCC, EC50 (pM), U226B1 cells [8]: 6.5 pM

B7: ABX1520, ILT3xCD3 bispecific antibody, format F13 (bispecific antibody, human IgG1, kappa, L234A L235A)
chain: EVQLLESGGGLVQPGGSLKLSCAASGFTFNTYAMNWVRQAPGKCLEWVARIRSKYNNYATYYADSVKDRFTISRDDSKNTAYLQMNNLKTEDTAVYYCVRHGNFGNSYVSWFAYWGQGTLVTVSSGGGGSGGGGSGGGGSELVVTQEPSLTVSPGGTVTLTCRSSTGAVTTSNYANWVQQKPGQAPRGLIGGTNKRAPGTPARFSGSLLGGKAALTLSGVQPEDEAEYYCALWYSNLWVFGCGTKLTVLGGGGSDKTHTCPPCPAPEAAGGPSVFLFPPKPKDTLMISRTPEVTCVVVDVSHEDPEVKFNWYVDGVEVHNAKTKPREEQYNSTYRVVSVLTVLHQDWLNGKEYKCKVSNKALPAPIEKTISKAKGQPREPQVYTLPPSREEMTKNQVSLSCAVKGFYPSDIAVEWESNGQPENNYKTTPPVLDSDGSFFLVSKLTVDKSRWQQGNVFSCSVMHEALHNHYTQKSLSLSPGK
heavy: EVQLVESGGGLVQPGGSLRLSCAASGFTFSDYGMHWVRQAPGKGLEWVAYIFSGSSTIYYADTVKGRFTISRDNAKNSLYLQMNSLRAEDTAVYYCARADGRGAMDYWGQGTLVTVSSASTKGPSVFPLAPSSKSTSGGTAALGCLVKDYFPEPVTVSWNSGALTSGVHTFPAVLQSSGLYSLSSVVTVPSSSLGTQTYICNVNHKPSNTKVDKKVEPKSCGGGGSEVQLVESGGGLVQPGGSLRLSCAASGFTFSDYGMHWVRQAPGKGLEWVAYIFSGSSTIYYADTVKGRFTISRDNAKNSLYLQMNSLRAEDTAVYYCARADGRGAMDYWGQGTLVTVSSASTKGPSVFPLAPSSKSTSGGTAALGCLVKDYFPEPVTVSWNSGALTSGVHTFPAVLQSSGLYSLSSVVTVPSSSLGTQTYICNVNHKPSNTKVDKKVEPKSCDKTHTCPPCPAPEAAGGPSVFLFPPKPKDTLMISRTPEVTCVVVDVSHEDPEVKFNWYVDGVEVHNAKTKPREEQYNSTYRVVSVLTVLHQDWLNGKEYKCKVSNKALPAPIEKTISKAKGQPREPQVYTLPPSREEMTKNQVSLWCLVKGFYPSDIAVEWESNGQPENNYKTTPPVLDSDGSFFLYSKLTVDKSRWQQGNVFSCSVMHEALHNHYTQKSLSLSPGK
light: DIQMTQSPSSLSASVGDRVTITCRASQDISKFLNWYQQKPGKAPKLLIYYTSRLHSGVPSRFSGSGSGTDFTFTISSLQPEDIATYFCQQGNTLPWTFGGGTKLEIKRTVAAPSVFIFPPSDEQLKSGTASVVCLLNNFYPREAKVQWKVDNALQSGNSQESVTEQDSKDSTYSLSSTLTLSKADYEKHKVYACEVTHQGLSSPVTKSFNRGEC
PBMC Cytotoxicity, EC50 (pM), MOLM13 cells, naive T cells from PBMCs [4]: 53.7 pM | TDCC, EC50 (pM), MOLM13 cells, expanded T cells [4]: 1.4 pM | TDCC vs. NALM-1 Cells, EC50 (pM), expanded T cells [5]: 3.6 pM | TDCC vs. OCI-AML-2 Cells, EC50 (pM), expanded T cells [5]: 23.3 pM | TDCC vs. NKM-1 Cells, EC50 (pM), naive T cells from PBMCs [6]: 2.6 pM | TDCC vs. OCI-AML-2 Cells, EC50 (pM), naive T cells from PBMCs [6]: 2 pM

B8: anti-CD3 scFv clone (VH as SEQ ID NO: 149, VL as SEQ ID NO: 150) (scFv)
scFv: EVQLLESGGGLVQPGGSLKLSCAASGFTFNTYAMNWVRQAPGKCLEWVARIRSKYNNYATYYADSVKDRFTISRDDSKNTAYLQMNNLKTEDTAVYYCVRHGNFGNSYVSWFAYWGQGTLVTVSSGGGGSGGGGSGGGGSELVVTQEPSLTVSPGGTVTLTCRSSTGAVTTSNYANWVQQKPGQAPRGLIGGTNKRAPGTPARFSGSLLGGKAALTLSGVQPEDEAEYYCALWYSNLWVFGCGTKLTVL
notes: also called the CD3 scFv
Kd [9]: 6 nM

B9: 48A6 anti-ILT3 antibody (antibody, V domains shown)
VH: EVQLVESGGDLMKPGGSLKLSCAASGFTFSSYGMSWVRQTPDKRLEWVATISSGGTYTFYPDSVKGRFTISRDNAKNTLYLQMSSLKSEDTAMYYCARRGWLLHYYAMDYWGQGTSVTVSS
VL: NIVLTQSPASLAVSLGQRATISCRPSESVDSFGNSFMHWFQQKPGQPPKLLIYLSSKLESGVPARFSGSGSRTDFTLTIDPVEADDAATYYCQQHNEDPFTFGSGTKLEIK
Kd [1]: 0.08 nM
